What all share (test): cell-based or functional assay
Test [1] has as its target recombinant mouse CCL20 (mouse) (UniProt O89093).
The target of test [2] is recombinant human CCL20 (human) (UniProt P78556).
The target in test [3] is human CCR6 (human) (UniProt P51684).
UniProt P51684, sequence (P51684 whole entry): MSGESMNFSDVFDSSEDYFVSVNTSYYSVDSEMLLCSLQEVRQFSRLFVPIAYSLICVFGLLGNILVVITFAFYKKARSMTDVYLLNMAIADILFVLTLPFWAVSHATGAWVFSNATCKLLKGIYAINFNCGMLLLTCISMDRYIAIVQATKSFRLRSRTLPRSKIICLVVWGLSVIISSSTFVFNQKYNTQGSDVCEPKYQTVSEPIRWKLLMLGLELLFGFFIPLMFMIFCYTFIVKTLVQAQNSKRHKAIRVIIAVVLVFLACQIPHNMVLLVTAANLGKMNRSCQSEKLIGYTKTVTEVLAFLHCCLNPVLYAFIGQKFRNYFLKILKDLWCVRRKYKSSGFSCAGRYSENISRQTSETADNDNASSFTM

UniProt P78556, sequence (P78556 27-96 limits assumed): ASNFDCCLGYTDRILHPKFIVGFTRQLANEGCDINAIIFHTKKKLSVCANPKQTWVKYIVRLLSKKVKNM
UniProt O89093, sequence (O89093 28-97 limits assumed): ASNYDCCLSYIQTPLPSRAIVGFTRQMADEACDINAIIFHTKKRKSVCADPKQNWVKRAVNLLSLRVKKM

For the substance “anti-mouse CCL20 monoclonal antibody (clone 114908; R&D Systems)”, the IC50, beta-arrestin translocation assay (CHO-K1 cells overexpressing mouse CCR6, stimulated with 1.2 nM mouse CCL20) in test [1] amounted to 14 nM.

As to “neutralizing monoclonal antibody against human CCL20 (clone 67310; R&D Systems)”, in test [2], the IC50, beta-arrestin translocation assay (CHO-K1 cells overexpressing human CCR6, stimulated with 6 nM CCL20) was determined as 2.7 nM and the IC50, cAMP assay (Ad293 cells overexpressing human CCR6, stimulated with 1 nM CCL20) turned out to be 0.8 nM.

As to “recombinant human CCL20 (from UniProt P78556 27-96) (ligand)”, in test [3], the expression of NANOG, BMI1, OCT3/4 and SOX2 in CCR6+ against CCR6- NCIH508 cells after 48 hours with 100 pg/mL CCL20 stood at 2 fold.
